According to US5607849:
Where two headings read alike, the source gives them in different places. One block for each substance: values may come before it.

Key:
dimethylated casein [1] = target: dimethylated casein
dimethylated casein [2] = target: dimethylated casein; remark: listed apart in the source
dimethylated casein [3] = target: dimethylated casein; remark: listed apart in the source

relative activity (fluorescence intensity due to bonding of monodansylcadaverine with dimethylated casein) (units/mg protein) (dimethylated casein [1]): 591
Substance: Alaska pollack (Theragra chalcogramma) liver-derived transglutaminase, natural enzyme purified from liver (S-Sepharose fraction)

relative activity (fluorescence intensity due to bonding of monodansylcadaverine with dimethylated casein) (units/mg protein) (dimethylated casein [2]): 807
Substance: Pagrus major liver-derived transglutaminase, natural enzyme purified from liver (heparin fraction)

Relative fluorescence intensity (bonding of monodansyl cadaverine with dimethylated casein) (relative fluorescence intensity) (dimethylated casein [3]): 910
Substance: Pagrus major transglutaminase, recombinant (expressed from the cDNA of pSLTG5 by plasmids pIL6TG1 and pTTG2-22 in E. coli HB101 and pYSTG1 in Saccharomyces cerevisiae INVSC2) (enzyme)
